The target of assay [1] is EGFR 647-654 (Homo sapiens) (UniProt P00533). Briefly: NMR. The conditions noted are these: cited from earlier work.
In a further assay the target is T1, Nck2_70-168 (human, UniProt O43639 70-168).
T1 sequence (looked up): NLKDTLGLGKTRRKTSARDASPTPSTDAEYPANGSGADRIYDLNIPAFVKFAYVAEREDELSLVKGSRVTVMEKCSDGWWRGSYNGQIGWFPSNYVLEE
Put plainly: NMR titration.

Assay [2] concerns the target T2, isolated 2nd SH3 domain (SH3.2) of human Nck2, residues 112-168 (human, UniProt O43639 112-168).
T2 sequence (looked up): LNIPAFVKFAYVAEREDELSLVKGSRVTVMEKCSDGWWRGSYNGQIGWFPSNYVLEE
Briefly: NMR titration.

Where no end group is shown, it is not given here.

For orientation: Kd means the free concentration of one partner at which half of the binding sites on the other are occupied at equilibrium, for simple one-to-one binding. With Nck1 SH3.2 (from UniProt P16333), the Kd in assay [1] is 80 µM.

B1: SOS1 peptide (1146-EVPVPPPVPPRR-1157) (peptide)
peptide: EVPVPPPVPPRR-NH2
Take B1: the “fold increase of Kd against the isolated SH3.2 domain” value with Nck2_70-168 came out at 4.7 fold.

B2: Nck2_71-90 peptide (peptide)
peptide: LKDTLGLGKTRRKTSARDAS-NH2
B2 displayed a Kd in assay [2] of about 1700 µM.

B3: Pak1 peptide (9-QDKPPAPPMRN-19) (peptide)
peptide: QDKPPAPPMRN-NH2
In the case of B3, the “fold increase of Kd against the isolated SH3.2 domain” value with Nck2_70-168 is 4.7 fold.

(Values after article PMC2899887 (Biochemistry, 2010).)
